From the RNAGym collection of RNA variant scans (doi:10.1073/pnas.2313332121) come the findings set out here.

The chains are these.
B1: TPR t1 (parent)
chain: GACCAAUCUGCCCUCAGAGCUCGAGAACAUCUUCGGAUGCAGAGGAGGCAGGCUUCGGUGGCGCGAUAGCGCCAACGUCCUCAACCUCCAAUGCAUCCCACCACAUGAUGAUGCCUGAAGAGCCUUGGUUUUUUG

Variants of B1 are the subject of this data set. Description: polymerase ribozyme fitness, log enrichment relative to wild type (log ratio); higher = more active; in vitro selection for triplet polymerase activity. The gist of the method:
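One round of in vitro selection, in triplicate, was applied to PCR-built, transcribed mutant libraries of each subunit of a heterodimeric triplet polymerase ribozyme. The steps were annealing with a biotinylated primer, partner subunit and triplets, incubation frozen at −7 °C, gel excision of extended constructs, streptavidin-bead capture and RT-PCR. Fitness is the logarithm, base 2, of genotype enrichment over wild-type enrichment from inverse-variance-weighted replicate averages of Illumina-sequenced inputs and outputs, keeping genotypes with ≥10 input reads and ≥1 read per output.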
Take GACCAAUCUGCCCUCAGAGCUCGAGAACAUCUUCGGAUGCAGAGGAGGCAGGCUUCGGUGGCGCGAUAGCCCCAACGUCCCCAACCUCCGAUGCAUCCCACCACAUGAUGAUGCCUGAAGAGCCUUGGUUUUUUG [G71C U81C A90G]: the “polymerase ribozyme fitness (log ratio)” value is -2.36.
GACCAAUCUGCCCUCAGAGCUCGAGAACAUCUUCGGAUGCAGAGGAGGCAGGCUUCGGUGGCGCGAUAGCGCCAACGUCCUCAACCUCCAAUGCAUCCCACCACAUGGUGAUGCCUGAAGAGCCUUGGUUUUUUG [A108G]: the “polymerase ribozyme fitness (log ratio)” value was -1.19.
The value for GACCAAUCUGCCCUCAGAGCUCGAGAACAUCUUCGGAUUCAGAGGAGGCAGGCUUCGGUGGCGCGAUAGCGCCAAUGUGCUCAACCUCCAAUGCAUCCCACCACAUGAUGAUGCCUGAAGAGCCUUGGUUUUUUG [G39U C76U C79G] was -1.98; that for GACCACUUUGUCCUCAGAGCUCGAGAACAUCUUCGGAUGCAGAGGAGGCAGGCUUCGGUGGCGCGAUAUCGCCAACGUCCUCAACCUCCAAUGCAUCCCACCAGAUGAUGAUGCCUGAAGAGCCUUGGUUUUUUG [A6C C8U C11U G69U C104G] was -5.29.
For the variant GACCAAUCUGCCCUCAGAGCUCGAGAGCAUCUUCGGAUGCAGAGGAGGCAGGCUACGGUGGCGCGAUAGCGCCAACCUCCUCAACCUCCAAUGCCUCCCACCACAUGAUGAUGCCUGAAGAGCCUUGGUUUUUUG [A27G U55A G77C A95C], the “polymerase ribozyme fitness (log ratio)” value is -4.8.
Consider GACCAAUCUGCCCUCAGAGCUCGAGAACAUCUUCGGAUGCAGAGGAGGCAGGCUUCGGUGGCGCGAUAGCGCCAACGUCCUCAACCUCCAAUGCAUCCCACCACAAUAUGAUGCCCGAAGAGCCUUGGUUUUUUG [U106A G107U U116C], for which the “polymerase ribozyme fitness (log ratio)” value is -7.47.
For the variant GACCAAUCUGCCCUCAGAGCUCGAGAACAUCUUCGGAUGCAGAGGAGGCAGGCUUCGGUGGCGCGAUAGCGCCCACGUCCUCAACCUCCAAUGCAUCCCACCACAUGAUGAUGCCUGAAAAGCCUUGGUUUGUAG [A74C G120A U132G U134A], the “polymerase ribozyme fitness (log ratio)” value is 0.272.
The value for GACCAAUCUGCCCUCAGAGCUCGAGAACAUCUUCGGAUGCAGAGGAGGCAGUCUACGGUGGCGCGAUAGCGCCAACGUCCUCGACCUCCAAUGCAUCCCACCACAAGAUGAUGCUUGAAGAGCCUUGGUUUUUUG [G52U U55A A83G U106A C115U] was -5.1; that for GACCAAUCUGCCCUCAGAGCUCGAGAACAUCUUAGGAUGCAGAGGAGGCAGGCUUCGGUGGCGCGAUAGCGCCAACGUCCUCAGCCUCCAAUGCAUCCCACCACAUGAUGAUGCCUGAAGGGCCUUGGUUUUUUG [C34A A84G A121G] was -2.74; that for GACCAAUCUGCCCUCAGAGCUCGAGAACAUCUUCGGAUGCAGAGGAGGCAGGCUUCGGUGGCGCGAUAGCGCCAACGUCCUCAACCUCCAAUGCAUCCCACCACAUGAUGAGGCCGGAAGAGCCUUGGUUUUUUG [U112G U116G] was -2.14.
The value for GACCAAUCUGCCCUCGGAGCUCGAGAACAUCUUCGGAUGCAGAGGCGGCAGGCUUCGGUGGCGCGAUAGCGCCAACGUCCUCAACCUCCAAUGCAUCCCACCACAUGAUGAUGCCUGAACAGCCUUGGUUUUUUG [A16G A46C G120C] was -0.418.
For the variant GACCAAUCUGCCCUCAGAGCUCGAGAACAUCCUCGGAUGCAGAGGAGGCAGGCUUCGGUGGCGCGAUACCGCCAACGUCUUCAACCUCCAAUGCAUCCCAUUACAUGAUGAUGCCUGAAGAGCCUUGGUUUUUUG [U32C G69C C80U C101U C102U], the “polymerase ribozyme fitness (log ratio)” value is -5.78.
Turning to GACCAAUCUGCCCUCAGAGCUCGAGAACAUCUUCGGAUGCAGAGGAGGCAGUCUUCGGUGGCGCGAUAGCGCCAACGUCCUCAACCUCCAAUACAUCCCACCACAUGAUGAUGGCUGAAGAGCCUUGGUUUUUUG [G52U G93A C114G], the “polymerase ribozyme fitness (log ratio)” value was -4.8.
Next, GACCAAUCUGCCCUCAGGGCUCGAGAACAUCUUCGGAUGCAGAGGAGGCAGGCUUCGGUGGCGCGAAAGCGCCAACGUCCUCAACCUCCAAUGCAUCCCACUACAUGAUGAUGCCUGAAGAGACUUGGUUUUUUG [A18G U67A C102U C123A]: -5.64.
As to GACCAAUCUGCCCUCAGAGCUUGAGAACAUCUUCGGAUGCAGAGGAGGCAAGCUUCGGUGCCGCGAUAGCGCCAACGUCCUCAACCUCCAAUGCAUCCCACCACAUGAAGAUGCCUCAAGAGCCUUGGUUUUUUG [C22U G51A G61C U109A G117C], the “polymerase ribozyme fitness (log ratio)” value was -7.16.
Turning to GACCAAUCUGCCCUCAGAGCUCGAGAACAUCUUCGGAUGGAGAGGAGGCAGGCUUUGGUGGCGCGAUAUCGCCAACGUCCUCAACCUCCAAUGCAUCCCACCACAUGAUGAUGCCUGAAGAGCCUUGGUUUUUUG [C40G C56U G69U], the “polymerase ribozyme fitness (log ratio)” value was -3.63.
Consider GACUAAUCUGCCCUCGGAGCUCGAGAACAUCUUCGGAUGCAGAGGAGGUAGGCUUCGGUGGCGCGAUAACCCCAACGGCCUUAUCCUCCAAUGCAUCCCACCACAUGAUGAUGCAUGAAGAGCCUUGGUUUUUUG [C4U A16G C49U G69A G71C U78G C82U A84U C115A], for which the “polymerase ribozyme fitness (log ratio)” value was -6.51.
The value for GACCAAUCUGCCCUCAGAGCUCGAGAACAUCUUCGGAUGCAGAGGAGGCAGGCUUCGGUGGCGCGACAGCGCCAACGUCCUCAACCUCCAAUGCAUCCCACCACAUGAUUAUGCCUGAAGAGCCUUGGUUUUUUG [U67C G110U] was -3.86; that for GACCUAUCUGCCCUCAGAGCUCGAGAACAUCUUCGGAUGCAGAGGAGGCAGGCUUCGGUGGCGCGAUAGCGCCAACGUCCUCAACCUCCAAUGUAUCCCACCACAUGAUGAUGCCUGAAGAGCCUUGGUUUUUUG [A5U C94U] was -1.16.
GGCCAAUCUGCCCUCAGAGCUCGAGAACAUCUUCGGAUGCAGAGGAGGCAGGCUUCGGUGGCGCGAUAGCGCCAACGUCCUCAACCUCCAAUGCAUCCCACCACAUGAUGAUACCUGAAGAGCCUUGGUUUUUUG [A2G G113A]: the “polymerase ribozyme fitness (log ratio)” value is -1.6.
Regarding GACCAAUCUGCCCUCAGAGCUCGAGAACAUCUUCGGAUGCAGAGGGGGCAGGUUUCGGUGGCGCGAUAGCGCCAACGUCCUCAACCUCUAAUGCAUCCCACCACAUGAUGAUGCCUGAAGAGCCUUGAUUUUUUG [A46G C53U C89U G128A], the “polymerase ribozyme fitness (log ratio)” value is -3.9.
